Three molecules from patent publication US20230051715A1 (MABWELL THERAPEUTICS, published 2023) can be followed below.

Substitutions are numbered along the chain they refer to. In names and notes the source's numbering stands.

The target of assay [1] is T1, human C1s mutant M3 (M277I, P278S & N329D) (human, UniProt P09871 16-688).
T1 construct: The entry is the mutant itself
T1 sequence: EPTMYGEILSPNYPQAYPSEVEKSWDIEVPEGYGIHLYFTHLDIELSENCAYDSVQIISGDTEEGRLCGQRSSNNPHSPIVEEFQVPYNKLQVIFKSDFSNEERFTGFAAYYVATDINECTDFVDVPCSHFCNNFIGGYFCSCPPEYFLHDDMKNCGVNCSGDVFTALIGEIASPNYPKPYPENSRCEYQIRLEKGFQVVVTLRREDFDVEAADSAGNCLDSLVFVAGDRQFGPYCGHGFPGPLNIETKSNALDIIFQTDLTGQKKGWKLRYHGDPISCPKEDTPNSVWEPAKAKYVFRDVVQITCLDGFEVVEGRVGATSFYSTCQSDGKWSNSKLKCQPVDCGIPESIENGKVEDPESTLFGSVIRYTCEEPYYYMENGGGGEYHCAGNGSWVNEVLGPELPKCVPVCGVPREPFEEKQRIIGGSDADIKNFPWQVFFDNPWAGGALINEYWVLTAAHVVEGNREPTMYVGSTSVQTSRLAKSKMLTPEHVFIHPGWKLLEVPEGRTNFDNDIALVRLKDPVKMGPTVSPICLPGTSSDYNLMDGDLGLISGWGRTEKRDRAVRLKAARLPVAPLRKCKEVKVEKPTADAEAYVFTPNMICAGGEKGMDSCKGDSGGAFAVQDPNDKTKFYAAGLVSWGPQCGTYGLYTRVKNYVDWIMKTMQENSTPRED
In words: ELISA, plate coated with human C1s mutant M3: M277I, P278S, N329D, OD450nm. How it is done: (§1) ELISA was carried out by first coating 96-well plates with 200 ng/well of full-length or truncated C1s proteins overnight. The next morning, plates were blocked with SuperBlock T20 blocking buffer (Thermo Scientific 37536) for 1 h with gentle shaking. Then, various concentrations of anti-C1s antibodies diluted in SuperBlock T20 blocking buffer were added to the plates and incubated for 1 h with gentle shaking. Mouse IgG (Sigma-Aldrich 15381) and human IgG1 (BioXCell BP0297) were used as negative controls. The plates were washed before incubating with HRP conjugated secondary antibodies diluted in SuperBlock T20 blocking buffer (goat anti-mouse IgG (H+L) cross-adsorbed secondary antibody HRP (Invitrogen G-21040) or goat anti-human IgG antibody, HRP conjugate (Millipore AP309P)) for 1 h with gentle shaking. At last, the plates were washed and color developed with ELISA liquid HRP substrate (Sigma-Aldrich), followed by stopping the reaction with addition of 1M H₂SO₄ in the same volume as the ELISA liquid substrate. Bound antibody was measured by absorbance at OD₄₅₀ₙₘ.
(§2) Binding of anti-C1s antibodies to mutants M1-M20 of human C1s was measured by ELISA as described in Example 4, and results are shown in FIGS. 6B-6U. All anti-C1s humanized variants including hz2-7(H1L2), hz2-8(H1L2 G80A) and hz2-8(H1L2 G80A/T82A) maintained strong binding properties to the majority (16 out of 20) of C1s mutants including M1 (FIG. 6B), M2 (FIG. 6C), M3 (FIG. 6D). M4 (FIG. 6E), M7 (FIG. 6H), M8 (FIG. 6I), M10 (FIG. 6K), M11 (FIG. 6L), M12 (FIG. 6M), M13 (FIG. 6N), M15 (FIG. 6P), M16 (FIG. 6Q), M17 (FIG. 6R), M18 (FIG. 6S), M19 (FIG. 6T) and M20 (FIG. 6U).

Assay [2] concerns the target T2, human C1s mutant M14 (R316H) (human, UniProt P09871 16-688).
T2 construct: The entry is the mutant itself
T2 sequence: T1 sequence with I277M, S278P, R316H, D329N
Kind of assay: ELISA, plate coated with human C1s mutant M14: R316H, OD450nm. The method, then: as §1, §2

Assay [3] addresses T3, human C1s mutant M16 (R368H) (human, UniProt P09871 16-688).
T3 construct: The entry is the mutant itself
T3 sequence: T1 sequence with I277M, S278P, D329N, R368H
Kind of assay: ELISA, plate coated with human C1s mutant M16: R368H, OD450nm. The method, then: as §1, §2
A general note: ELISA stands for enzyme-linked immunosorbent assay.

B1: Anti-C1s antibody hz2-7(H1L2) (antibody, V domains shown)
VH: EVQLLESGGGLVQPGGSLRLSCAASGFTFSNYFMNWVRQAPGKGLEWVSEIRLKFTNYATHYADSVKGRFTISRDDSKSTLYLQMNSLRAEDTAVYYCTRDYGSRNGYFDYWGQGTLVTVSS
VL: DIVMTQTPLSLPVTPGEPASISCRSSKSLLHSNGNTFLYWFLQKPGQSPQLLIYRMSNLASGVPDRFSGSGSGTDFTLKISRVEAEDVGVYYCMQHLEYPYTFGGGTKLEIKR
notes: Humanized, human IgG1 / kappa; also called hz2-7(1L2)
The term EC50 denotes the concentration giving half of the maximal effect. Lower therefore signals greater potency. As for B1, the EC50 came out at 8 ng/mL in assay [1] and 6 ng/mL in assay [3]. Moreover, the binding result in assay [2] is on record as “no binding (tested: 1000 ng/ml (Log 3))”.

B2: Anti-C1s antibody hz2-8 (H1L2 G80A) (antibody, V domains shown)
VH: QVQLVQSGAEVKKPGASVKVSCKASGFNIKEYYMHWVRQAPEQGLEWMGWIDPENADTIYAQKFQGRVTITADTSTNTAYMELSSLRSEDTAVYYCARSRLFFAYWGQGTLVTVSS
VL: DIQMTQSPKSLSASVGDRVTITCRASQDVRTALDWYQQKPGQSPKLLIYSASYRYSGVPSRFSGSGSGTDFTLTISSLQPEDFATYYCQQQYTTPYTFGQGTKLEIKR
notes: Humanized variant with G80A in HC CDR2 (already in the entry), human IgG1 / kappa
Regarding B2, the EC50 worked out at 6 ng/mL in assay [1], 5 ng/mL in assay [2] and 6 ng/mL in assay [3].

B3: Anti-C1s antibody hz2-8 (H1L2 G80A/T82A) (antibody, V domains shown)
VH: B2 VH with T58A
VL: B2 VL
notes: Humanized variant with G80A and T82A in HC CDR2 (already in the entry), human IgG1 / kappa
Regarding B3, the concentration giving a half-maximal response (EC50) was 4 ng/mL in assay [1], 8 ng/mL in assay [2] and 9 ng/mL in assay [3].
